Four molecules from paper PMC9805813 (Biochemistry, 2021) can be followed below.

Changes are numbered by the printed parent chain. Names and notes keep the numbering of the source.

Data set [1] concerns the target T1, PaParE1 toxin, wild type (Pseudomonas aeruginosa, UniProt Q9I708 1-93).
T1 sequence: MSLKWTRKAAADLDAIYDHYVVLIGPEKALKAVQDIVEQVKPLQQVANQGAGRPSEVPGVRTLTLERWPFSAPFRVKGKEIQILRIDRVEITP
In words: BLI. On the technique in general: In BLI a coated tip is dipped into the sample, and binding shifts an interference pattern.

Data set [2] deals with the molecule itself. In words: SEC-MALS. Background: In gel filtration, larger molecules generally elute earlier.

Take RQQWQVAAIDEGLADANAGRLLEHIEIEKRWGLQ (domain or fragment) [mCh-ParD1(42-75)]: in data set [1], the Kd was 0.828 ± 0.55 nM.

B1: mCherry fused to full length ParD1 (natural protein, Pseudomonas aeruginosa, UniProt Q9I707 1-75, looked up)
chain: MSTVVSFRADDALVAALDELARATHRDRPYHLRQALAQYLERQQWQVAAIDEGLADANAGRLLEHIEIEKRWGLQ
As for B1, binding in data set [1] was characterised by a dissociation constant (Kd) of 0.225 ± 0.0068 nM.

B2: PaParD1 antitoxin, wild type, His-tagged (natural protein)
chain: B1 chain
With B2, in data set [2], the “stoichiometry N” value stood at 2.

B3: PaParD1 I68A, His-tagged (natural protein, Pseudomonas aeruginosa, UniProt Q9I707 1-75, looked up)
chain: B1 chain with I68A
B3: the “stoichiometry N” value in data set [2] was found to be 2.

As a reminder, the Kd is the equilibrium constant for the complex coming apart. High values mean lower affinity, low ones higher affinity. Broadly, the stoichiometry N is the number of molecules, sites or subunits per partner or assembly.
